Laboratory results reported in US20130064836A1 (Novartis, published 2013).

Key:
[1] = molecular target: T1, human complement C5 protein (human, UniProt P01031 19-673; P01031 678-1676, Beta and alpha chains are joined by disulfide bonds. C5 was biotinylated in some assays.); assay: SET (MSD), purified Fab
T1 construct: Mature C5 is a beta and an alpha chain joined by disulfide bonds after loss of the RPRR linker; also called human C5; hu C5
Method: (§1) Streptavidin MSD plates were coated with 0.2 μg/ml biotinylated human C5 (30 μl/well) and blocked with 5% BSA in PBS. Subsequently the equilibrated samples were transferred to those plates (30 μl per well) and incubated for 20 min.

[2] = molecular target: T2, cynomolgus C5 (Macaca fascicularis) (cynomolgus (Macaca fascicularis), Beta and alpha chains are joined by disulfide bonds; the protein is a serum glycoprotein.); assay: SET (MSD), purified Fab
T2 construct: also called cyno C5; cynoC5
T2 beta: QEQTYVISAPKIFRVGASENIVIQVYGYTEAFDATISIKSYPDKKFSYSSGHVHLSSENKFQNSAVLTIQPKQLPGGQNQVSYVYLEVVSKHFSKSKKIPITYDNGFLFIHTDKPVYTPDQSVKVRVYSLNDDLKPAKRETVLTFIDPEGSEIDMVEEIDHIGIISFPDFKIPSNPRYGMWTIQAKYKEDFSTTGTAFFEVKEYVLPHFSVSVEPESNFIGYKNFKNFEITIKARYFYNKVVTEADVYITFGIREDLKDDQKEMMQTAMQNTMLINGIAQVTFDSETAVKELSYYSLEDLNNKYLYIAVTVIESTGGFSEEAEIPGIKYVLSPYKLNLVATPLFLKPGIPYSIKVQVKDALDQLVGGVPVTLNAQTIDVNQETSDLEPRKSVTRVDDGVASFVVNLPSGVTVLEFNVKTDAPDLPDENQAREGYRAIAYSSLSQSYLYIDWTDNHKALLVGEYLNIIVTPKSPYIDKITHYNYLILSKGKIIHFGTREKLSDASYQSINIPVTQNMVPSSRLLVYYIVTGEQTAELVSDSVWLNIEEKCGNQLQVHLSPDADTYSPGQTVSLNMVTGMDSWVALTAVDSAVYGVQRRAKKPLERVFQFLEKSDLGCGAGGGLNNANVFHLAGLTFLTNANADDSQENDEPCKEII
T2 alpha: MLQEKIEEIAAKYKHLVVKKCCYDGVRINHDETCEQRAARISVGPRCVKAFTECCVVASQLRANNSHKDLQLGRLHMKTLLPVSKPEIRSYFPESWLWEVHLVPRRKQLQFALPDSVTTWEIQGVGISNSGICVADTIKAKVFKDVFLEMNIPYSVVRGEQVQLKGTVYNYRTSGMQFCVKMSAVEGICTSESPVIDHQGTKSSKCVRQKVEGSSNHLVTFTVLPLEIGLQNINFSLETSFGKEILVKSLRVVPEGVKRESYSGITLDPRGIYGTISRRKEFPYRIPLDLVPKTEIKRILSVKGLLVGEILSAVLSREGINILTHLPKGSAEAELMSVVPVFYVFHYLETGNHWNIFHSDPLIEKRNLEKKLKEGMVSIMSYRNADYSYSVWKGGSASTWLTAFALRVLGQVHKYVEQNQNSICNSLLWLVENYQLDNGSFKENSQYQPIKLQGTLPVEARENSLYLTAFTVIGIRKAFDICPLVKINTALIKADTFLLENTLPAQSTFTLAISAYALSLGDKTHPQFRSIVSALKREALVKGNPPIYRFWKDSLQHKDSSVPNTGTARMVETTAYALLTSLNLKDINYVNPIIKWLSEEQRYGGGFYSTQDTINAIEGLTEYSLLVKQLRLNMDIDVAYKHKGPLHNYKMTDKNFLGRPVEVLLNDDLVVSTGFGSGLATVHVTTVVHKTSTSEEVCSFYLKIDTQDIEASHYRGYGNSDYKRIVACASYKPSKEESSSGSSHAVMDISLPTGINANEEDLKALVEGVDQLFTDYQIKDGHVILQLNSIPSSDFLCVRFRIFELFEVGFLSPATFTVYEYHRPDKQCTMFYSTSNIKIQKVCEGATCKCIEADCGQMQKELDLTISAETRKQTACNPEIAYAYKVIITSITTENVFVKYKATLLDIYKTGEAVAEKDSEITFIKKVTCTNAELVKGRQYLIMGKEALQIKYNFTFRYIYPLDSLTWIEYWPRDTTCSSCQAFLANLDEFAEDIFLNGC
Method: as §1

[3] = molecular target: T1, human complement C5 protein; assay: cell-based or functional assay
[4] = molecular target: T1, human complement C5 protein; assay: cell-based or functional assay; remark: listed apart in the source
[5] = molecular target: T2, cynomolgus C5 (Macaca fascicularis); assay: cell-based or functional assay
human complement C3 = molecular target: T3, human complement C3 (human, UniProt P01024 23-667; P01024 672-1663); assay: solution ELISA: Fab with biotinylated antigen on NeutrAvidin plate, His-tag detection [huC3 panel]
T3 construct: Counter target in the ELISAs, coated directly or biotinylated; also called human C3
Method: (§2) Fabs were incubated with biotinylated antigen on a Neutravidin plate and detected via the histidin tag.

[6] = molecular target: T1, human complement C5 protein; assay: solution ELISA: Fab with biotinylated antigen on NeutrAvidin plate, His-tag detection [huC5 panel]
Method: as §2

[7] = molecular target: T2, cynomolgus C5 (Macaca fascicularis); assay: solution ELISA: Fab with biotinylated antigen on NeutrAvidin plate, His-tag detection [cynoC5 panel]
Method: as §2

T3 sequence (P01024 23-667 limits assumed, chain 1 of 2): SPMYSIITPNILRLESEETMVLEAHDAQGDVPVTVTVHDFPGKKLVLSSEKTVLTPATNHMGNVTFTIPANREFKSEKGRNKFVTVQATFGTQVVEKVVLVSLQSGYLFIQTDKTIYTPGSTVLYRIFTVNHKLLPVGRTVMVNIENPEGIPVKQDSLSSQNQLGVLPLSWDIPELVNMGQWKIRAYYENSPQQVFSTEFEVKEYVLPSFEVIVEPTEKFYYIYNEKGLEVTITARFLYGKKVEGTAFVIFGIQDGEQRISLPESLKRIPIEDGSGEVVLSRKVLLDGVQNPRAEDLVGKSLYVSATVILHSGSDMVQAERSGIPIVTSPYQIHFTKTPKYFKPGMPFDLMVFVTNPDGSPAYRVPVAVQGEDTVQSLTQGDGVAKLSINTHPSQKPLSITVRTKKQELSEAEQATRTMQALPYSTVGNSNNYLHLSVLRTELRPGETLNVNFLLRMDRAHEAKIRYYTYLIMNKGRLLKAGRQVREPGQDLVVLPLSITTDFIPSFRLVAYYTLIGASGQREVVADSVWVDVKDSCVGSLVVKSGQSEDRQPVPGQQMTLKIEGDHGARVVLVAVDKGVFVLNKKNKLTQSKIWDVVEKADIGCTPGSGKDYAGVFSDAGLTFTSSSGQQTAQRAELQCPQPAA
T3 sequence (P01024 672-1663 limits assumed, chain 2 of 2): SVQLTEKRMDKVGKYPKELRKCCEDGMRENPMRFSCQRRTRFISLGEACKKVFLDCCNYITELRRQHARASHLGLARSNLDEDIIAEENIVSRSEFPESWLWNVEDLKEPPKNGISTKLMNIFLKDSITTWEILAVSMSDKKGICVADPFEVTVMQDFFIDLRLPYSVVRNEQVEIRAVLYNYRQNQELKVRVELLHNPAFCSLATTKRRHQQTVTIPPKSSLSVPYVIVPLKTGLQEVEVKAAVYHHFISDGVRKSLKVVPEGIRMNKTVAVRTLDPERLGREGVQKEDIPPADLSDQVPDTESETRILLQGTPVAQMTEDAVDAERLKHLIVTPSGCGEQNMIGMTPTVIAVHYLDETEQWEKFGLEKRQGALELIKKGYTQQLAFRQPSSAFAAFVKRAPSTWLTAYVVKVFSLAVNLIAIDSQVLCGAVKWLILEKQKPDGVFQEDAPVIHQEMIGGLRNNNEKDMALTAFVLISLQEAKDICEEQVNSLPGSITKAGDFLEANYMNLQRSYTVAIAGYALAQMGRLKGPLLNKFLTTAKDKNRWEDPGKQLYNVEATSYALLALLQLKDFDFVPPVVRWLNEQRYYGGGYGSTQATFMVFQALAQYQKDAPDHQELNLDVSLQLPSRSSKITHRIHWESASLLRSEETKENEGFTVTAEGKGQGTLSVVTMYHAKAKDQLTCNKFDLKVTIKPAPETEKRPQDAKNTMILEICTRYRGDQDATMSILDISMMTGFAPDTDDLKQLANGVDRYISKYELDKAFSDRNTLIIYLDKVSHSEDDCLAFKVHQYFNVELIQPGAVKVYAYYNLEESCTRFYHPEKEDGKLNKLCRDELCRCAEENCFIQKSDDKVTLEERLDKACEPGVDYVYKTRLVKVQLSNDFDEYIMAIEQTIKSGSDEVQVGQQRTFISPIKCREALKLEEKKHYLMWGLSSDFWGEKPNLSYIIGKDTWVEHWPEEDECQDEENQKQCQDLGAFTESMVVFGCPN

B1: MOR07871 (Fab, V domains shown)
VH: QVQLVQSGAEVKKPGESLKISCKGSGYSFTSYYIGWVRQMPGKGLEWMGIIDPSDSHTTYSPSFQGQVTISADKSISTAYLQWSSLKASDTAMYYCARYMMRGFDHWGQGTLVTVSS
VL: DIELTQPPSVSVAPGQTARISCSGDSLGDYYAYWYQQKPGQAPVLVIYKDNNRPSGIPERFSGSNSGNTATLTISGTQAEDEADYYCQTWDTGESGVFGGGTKLTVLG
notes: light CS or A
B1 was tested, and the Kd [1] was 0.003 nM, the Kd [2] was 0.004 nM and the “IC50; hemolysis AP, 100 pM human C5 [panel f]” value [3] was 54.5 pM. For the same binder, the “IC50; hemolysis AP, 100 pM human C5 [panel j]” value [4] was 36.6 pM, the “IC50; hemolysis AP, 100 pM cyno C5 in 20% human C5-depleted serum [panel a]” value [5] was 0.111 nM and the “IC50; hemolysis AP, 100 pM cyno C5 in 20% human C5-depleted serum [panel f]” value [5] was 0.137 nM. For the same binder, the binding result (human complement C3) was “no binding (tested: 100 nM)”, the EC50 [6] was 0.849 nM and the EC50 [7] was 0.617 nM.
